These results are taken from patent US20030220285A1.

Experiment [1] addresses purified HLA-A11 molecules (human).
The target of experiment [2] is purified HLA-A2.1 molecules (human). Particulars: remark: other sources report otherwise.

B1: HIV Env 49 (HIV env 49-58) peptide … (peptide)
peptide: TVYYGVPVWK
modifications: not checked
In general, IC50 refers to the concentration that inhibits the measured activity by half. A lower IC50 goes with greater potency in that assay. In turn, B1 displayed an IC50 in experiment [1] of 4 nM.

B2: HBV Env 335 (HBV env 335-343) peptide … (peptide)
peptide: WLSLLVPFV
modifications: not checked
In turn, B2 displayed an IC50 in experiment [2] of 5 nM.
